According to patent publication US12385055B2, “Compositions and methods for production of salidroside, icariside D2, and precursors of salidroside and icariside D2” (Whitehead Institute for Biomedical Research, priority 2017, dated 2025):

How the values were obtained:
[1] = substrate: OCCc1ccc(O)cc1; assay: Michaelis-Menten kinetics of RrT4GT (RrUGT3), tyrosol 4-O-glucosylation; type: biochemical, Rhodiola rosea; settings: other: substrate tyrosol (0.01-5.0 mM), 10 mM UDP-glucose, pH 8.0, 30° C., 10 min
Protocol: Kinetic characterization of UGTs was conducted in 200 μL reaction buffer (50 mM Tris, pH 8.0) containing 10 mM UDP-glucose and various concentrations of tyrosol (0.01-5.0 mM). Reactions were started with addition of recombinant enzyme, incubated at 30° C. for 10 minutes, and quenched by addition of 200 μL of methanol. The reaction mixed was then analyzed by LC-HRAR-MS as described above. Compounds were separated by reversed-phase chromatography with a ramp gradient of solvent A (0.1% formic acid in H2O) and solvent B (0.1% formic acid in acetonitrile): 5% solvent B for 0.5 min, 5-55% solvent B over 6 min, 55-5% solvent B over 1.0 min and a final equilibration of 5% solvent B for 1 min with a flow rate at 0.6 mL/min. Product formation was measured using select ion monitoring in positive mode for a centroid center mass of 318.15. Product mass was calculated by comparison to a standard curve of the NMR verified plant purified salidroside and icariside D2 samples.
Kinetic constants such as Km and Vmax were determined by fitting raw data to the Michaelis-Menten equation using the nonlinear regression function in Prism (version 7.0).

[2] = system: tyrosol; assay: In vivo tyrosol glycosylation assay in yeast expressing Rr4HPAAS; type: cell-based; settings: UGT on 2-micron TEF-promoter plasmid in S. cerevisiae BY4743 expressing Rr4HPAAS
Description: To facilitate functional assessment of a large number of UGT candidates, an in vivo tyrosol glycosylation assay in the yeast S. cerevisiae was devised. Initial iterations of the tyrosol-producing yeast strains were generated by transforming wild type S. cerevisiae BY4743 with separate 2-micron TEF-promoter expression plasmids containing Rr4HPAAS and Rr4HPAR1, respectively. It was later observed that yeast contains endogenous ADH activity sufficient to reduce 4-hydroxyphenylacetaladehyde produced by Rr4HPAAS to tyrosol. Therefore, the Rr4HPAR1-containing plasmid was omitted in the final tyrosol-producing strain (FIG. 18). Each of the 34 R. rosea UGT candidate genes, carried on the yeast 2-micron TEF-promoter expression plasmids, was transformed into the background strain expressing Rr4HPAAS. After auxotrophic selection, colonies were cultured, harvested and subjected to metabolic profiling by LC-HRAM-MS. […] The UGTs that contain T4GT activity appear to be phylogenetically diverse with representative enzymes falling into the D, G, E and K groups, while all of identified T8GTs cluster within the G group (FIG. 4A).
Crown tissue and root tissue of a three-month-old R. rosea plant was harvested and stored at −80° C. before subsequent metabolomic analysis. Various transgene-carrying S. cerevisiae BY4743 strains and transiently transformed N. benthamiana plants were generated to test the activity of candidate genes involved in the tyrosol glycoside biosynthesis. 3 mL of saturated S. cerevisiae culture was used to inoculate 50 mL of synthetic minimal media (SD) in a shake flask. After 24 hours of shaking at 30° C., the culture was pelleted by centrifugation, washed with water, and stored at −80° C. before further processing. N. benthamiana leaf tissue was harvested 5 days after Agrobacterium infiltration and was stored at −80° C. before further processing. Frozen yeast or plant tissue was disrupted with a TissueLyser (Qiagen) using acid-washed metal beads in 50% methanol (500 μL per 100 mg fresh weight). The extracts were then analyzed by LC-HRAM-MS. Metabolite profiling was conducted on a QExactive benchtop orbitrap mass spectrometer equipped with an Ion Max source and a HESI II probe, which was coupled to a Dionex UltiMate 3000 UPLC system (Thermo Fisher Scientific). 2 μL of each sample was injected onto a 150×2.1 mm ZIC-pHILIC column (5 μm particle size, EMD Millipore). Solvent A was 20 mM ammonium carbonate, 0.1% ammonium hydroxide; solvent B was acetonitrile. The column oven and autosampler tray were held at 25° C. and 4° C., respectively. The chromatographic gradient was run at a flow rate of 0.15 mL/min as follows: 0-20 min, linear gradient from 80% to 20% solvent B; 20-20.5 min, linear gradient from 20% to 80% solvent B; 20.5-28 min, hold at 80% solvent B. The mass spectrometer was operated in full-scan, polarity-switching mode with the spray voltage set to 3.0 kV, the heated capillary held at 275° C., and the HESI probe held at 350° C. The sheath gas flow was set to 40 units, the auxiliary gas flow was set to 15 units, and the sweep gas flow was set to 1 unit. The MS data acquisition was performed in a range of 70-1000 m/z, with the resolution set at 70,000, the AGC target at 10 e6, and the maximum injection time at 20 msec. The raw data was converted to mzML format using MSConvert (Chambers et al., 2012), and analyzed using MetaboAnalyst (Xia and Wishart, 2016) and MZmine2 (Pluskal et al., 2010).

Row | Molecule | tyrosol glycosylation activity (T8GT / T4GT) [2] | further results
1 | Rhodiola rosea RrT4GT (RrUGT3), tyrosol:UDP-glucose 4-O-glucosyltransferase, SEQ ID NO: 8 (Rhodiola rosea) (protein) MSGTPHIAILPSPGMGHLIPMAEFAKRLVHHHNFSITFVIPTDGPPSSAYQQVLTSLPSSIDHIFLPQVDLTDVVSQSPAHPRIETLISLTVARSLSSLRTTLSSLQSSKNLVSLVVDLFGTDAFDPAIELGISPYIFFPSTAMTLSLFLYMPQLDKSVTCEFRHMTDLVRIPGCVPVRGSDLFDPVQDRTDEAYKWVIHHSNRYPMAEGVIENSFMELEHGALKYLQTVQSGKPPVYAVGPLIKMDYDVDDSGSKIIEWLDDQPVGSVLFVSFGSGGTLSYEQMTELAHGLESSQQRFLWVVRSPNQIPNSTYFSVQSQKDPLAYLPEGFLNRTEGRGLVVSNWAPQAQILSHGSTGGFMSHCGWNSILESVVHGVPIIAWPLYAEQKMNSIIVVEDVKVALRPAGVGERVVERSEITAVVKALMEGEEGKKVRNRMKELKEAAARAVSDDGASTIAIADLAQKWRSSMKH | – | Km [1]: 4.11 ± 0.08 mM; kcat [1]: 481.6 ± 3.91 s⁻¹; kcat/Km [1]: 117000 M⁻¹ s⁻¹
2 | RrUGT29: R. rosea UGT with regio-specific T8GT activity, salidroside-producing (protein, listed as Rhodiola rosea) MGSLGKKIQQKPHAICTPYPAQGHINPMLKLAKLLHHSGFYITFVHTTYNYNRLLKTHGSDSLSGLPDFQFETIPDGLPPSDAADVTQDIPALCKSTTETCLVPFKELLAKLHNKSMASPEEVPPVTCIVSDGCMSFTVDAAEEAGVPNVLLWTTSACGFLGYANYPKLIDRGIIPLKDESYFTNGYLDKTVDGIPGMKGIRLRDFPNFVCTTNPDEFMVKYAIQEITRAARADAVILNTFDALEHDFLDGLSNIYPKVLPIGPLQLPLNQIPESSPLHSICSSLWKDEPQCITWLNSQKPKSVVYVNYGSITVMTPQQMVEFAWGLANTKYPFLWIIRPDLVAGETAVLPPDFLEVTKGRSCLASWCPQEQVLSHTSIGGFLTHCGWNSMLESVVEGVPMVCWPFFAEQQTNCWAARTKWGIGMEIDNDVKRDKVQKMVTELMEGEKGKEMKRKGGEWKKLGAEAAGPNGSATLNFSRLINDVLLSKKKIVVTT | regio-specific T8GT activity | –
3 | RrUGT32: R. rosea UGT with regio-specific T8GT activity (protein, listed as Rhodiola rosea) MGSLGKKIQQKPHAICTPYPAQGHINPMLKLAKLLHHSGFYITFVHTTYNYNRLLKTHGSDSLSGLPDFQFETIPDGLPPSDAADVTQDIPALCKSTTETCLVPFKELLAKLHNKSMASPEEVPPVTCIVSDGCMSFTVDAAEEAGVPNVLLWTTSACGFLGYANYPKLIDRGIIPLKDESYFTNGYLDKTVDGIPGMKGIRLRDFPNFVCTTNPDEFMVKYAIQEITRAARADAVILNTFDALEHDFLDGLSNIYPKVLPIGPLQLPLNQIPESSPLHSICSSLWKDEPQCITWLNSQKPKSVVYVNYGSITVMTPQQMVEFAWGLANTKYPFLWIIRPDLVAGETAVLPPDFLEVTKGRSCLASWCPQEQVLSHTSIGGFLTHCGWNSMLESVVEGVPMVCWPFFAEQQTNCWAARTKWGIGMEIDNDVKRDKVQKMVTELMEGEKGKEMKRKGGEWKKLGAEAAGPNGSATLNFSRLINDVLLSKKKL | regio-specific T8GT activity | –
4 | RrUGT2: R. rosea UGT with regio-specific T4GT activity, icariside D2-producing (protein, listed as Rhodiola rosea) MGSDSRPLRVFFFPFMAHGHLIPMVDIARLFSSQGVHSTIITTPLNANYISKTTSLSIKTIPFPAAEVGLPDGCENIDMLPSPDLFFKFFQAANLLQAPFENLLELERPDCLISDIFFPWSVDSAEKFNIPRLVFHGTSFFAMCAMESLKTHKPYKSVSTDSEPFLIPNLPDEIKMTKSQFTVDAWEDTEKGLGKLLADARASGLRSFGMIVNSFHELEPAYADYYKNVLNMKAWCVGPVSLYNRNDDEKIARGKKSAIDDHECLKWLEGKQPDSVVYVCFGSSASFPDEQLRDIALGLEESGVNFIWVIRRSSESGSEDYLPEGFEDRVKDRGLVIRGWAPQVLILDHPSVGGFVTHCGWNSALEGISAGLPMVTWPLFAEQFFNQKLITDVLKVGVEVGVQKWSRNGEDRVTKEKVEKAVRAVMVGEDAEERRGRARQLGKLAKKAVAKDGSSYIDLHNLLDELKLRRETLS | regio-specific T4GT activity | –
5 | RrUGT7: R. rosea UGT with regio-specific T4GT activity (protein, listed as Rhodiola rosea) MAENTHAHAIVVPFPVQGHIKPSLNLALKLASQGFTITFVTTHFTHQQISQAHKNSTNTNHDMFFQARNSSLDIRHVTVTDTFPLGFDRAGNQDQFWEGMLHVFPAHVDELVDQLMNSSKPRPTCLILDTFYNWGSKIANKFNLVHISFWTQSALSFTLFYHWELLKKNGHFGSPDNRTDVIDYIPGVQEIKPADLISYLQMSDTTTVAHRTCFTAFEDVRKADFILANTIQEFETDTISSIRFHQPFFYPIGPVFLTKSEQQASSALWSESDCEQWLSTKPKGSVLYASFGSYARVTRHDIAEIAYGLMQSEVNFIWVIRDDIVGAHETDFLPTEFINGIKLKDQGLLVSWCSQTEVLSNAAIGGFLTHCGWNSILESVWCEVPLLCFPIMTDQPSNRKLVVDDWRIGVNLSAAEEVSREEVSMKVRNLISGELGNELRVQIQKYKKLMENGIMEGGSSHSNWNKFIHDLQIFKK | regio-specific T4GT activity | –
6 | RrUGT13: R. rosea UGT with regio-specific T4GT activity (protein, listed as Rhodiola rosea) MAEISLIFIPFPVISHLTPTIEIAKILLSRDHRLSITFLVIDIPQRDASLASLTTSIISDRLHFLDVVLPPNQHSQSSKPSGIAAIESAKPAVKKTISDLVVRSQSAASGPRIAGFVLDMFCTAMIDIATEFNLPSYIYYTCGSSFLSIVLHVQKLCDDDALDIADFKNSSVEFSLPEFSNLIPARLLPSMALDKDFSASFVGKARAFRKTKGILVNSLVELEPHAIESMKLDRSVPPIYSVGPVLNMNSNTAFIRQEQEKEIMEWLDQQPPASVVFLCFGSRGAFKPDQVKEIARGLESSGCRFLWALRQPSSSNVRFSPPTDYEDFSEVLPEGFLQRTYGVGKVIGWAPQTAVLDHPSVGGFVSHCGWNSILESLWFGVPIATWPLYAEQQMNAFEVVKEMKIGVEISLDYRLEMGGKQAEGSGIISGEQIERGIRDVMQEDSEVRKKVKLMMEKSREAVVEGGSSYNYIQNFISDLRTNIGL | regio-specific T4GT activity | –
7 | RrUGT17: R. rosea UGT with both T8GT and T4GT activities (protein, listed as Rhodiola rosea) MGSLPSTKSHAVLVPYPAQGHINPFMQLAKLLHSKGFHITFVNNDHNHRRLLRTKGHDFVQGLEGLRFEAVPDGLPPSDRDATQDVPKLTESIYNKSMNQPFSDLLQRLNSTPGSPPVTCVISDVAMFFAWDVADELGIPNVQFWTASACGLLGYLQYDELLRRAIVPFKDENFMTDGSLEALIDWIPGMPNMRLKDLPSFMRTTSPDDVLFNYLRTITTKALKSSALLLNTFDDFEHEVVEEMKKMQPNIFLGGPLNMLLRHTSKTEITSLTTSLWKEDTHCLEWLDKQEPESVVYINYGSVTIMSDHHLNEFAWGLANSKHPFLWIVRPDVVRGESGTLPKEFYDEIKDRGLITSWCPQPEVLKHPSVGVYLTHCGWNSITESVAGGVPLMCWPFFAEQQTNSRFACTVWGTGVEVNADVKREELAEQVMEMLEGKRGQELRKNAKEWRRKAEEATDIGGSAYADFDRFMEKVVQFSV | both T8GT and T4GT activities | –
